Changes are numbered by the printed parent chain.
How the values were obtained:
[1] = target: T1, human MUC16 on cells (human, UniProt Q8WXI7 1-14507); assay: flow cytometry (MFI GeoMean) on SNU216 cells, nM is the unit of the x axis Log10[Ab] (nM)
T1 construct: whole, on cells; also called huMUC16; MUC16 on OVCAR3 and SNU216 cells

[2] = target: T2, HEK293-MUC16 (13810-14507) (human, UniProt Q8WXI7 13810-14507); assay: flow cytometry (MFI GeoMean) on HEK293-MUC16 (13810-14507) cells, nM is the unit of the x axis Log10[Ab] (nM)
T2 construct: range 13810-14507; also called MUC16 overexpressed HEK293 cells
T2 sequence: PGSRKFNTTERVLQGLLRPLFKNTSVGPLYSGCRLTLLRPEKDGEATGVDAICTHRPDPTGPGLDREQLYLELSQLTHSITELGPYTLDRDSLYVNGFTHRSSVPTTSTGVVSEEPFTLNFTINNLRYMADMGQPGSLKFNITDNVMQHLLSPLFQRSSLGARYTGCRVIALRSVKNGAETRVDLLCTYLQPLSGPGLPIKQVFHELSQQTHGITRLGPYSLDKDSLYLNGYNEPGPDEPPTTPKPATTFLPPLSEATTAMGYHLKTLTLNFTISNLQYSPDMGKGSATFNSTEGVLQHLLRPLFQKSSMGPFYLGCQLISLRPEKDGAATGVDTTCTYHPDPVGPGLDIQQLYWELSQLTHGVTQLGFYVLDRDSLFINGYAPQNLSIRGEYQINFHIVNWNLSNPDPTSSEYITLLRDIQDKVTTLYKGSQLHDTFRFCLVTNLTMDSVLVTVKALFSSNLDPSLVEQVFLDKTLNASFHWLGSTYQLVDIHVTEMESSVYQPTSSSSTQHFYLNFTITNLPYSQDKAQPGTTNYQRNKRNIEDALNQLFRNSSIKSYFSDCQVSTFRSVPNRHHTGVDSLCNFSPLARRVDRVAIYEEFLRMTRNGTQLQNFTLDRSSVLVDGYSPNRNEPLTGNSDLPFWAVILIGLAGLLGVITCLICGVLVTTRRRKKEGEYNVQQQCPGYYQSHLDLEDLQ

[3] = target: T3, huMUC16, AA14198-14507; assay: binding ELISA on huMUC16 AA14198-14507
T3 chain: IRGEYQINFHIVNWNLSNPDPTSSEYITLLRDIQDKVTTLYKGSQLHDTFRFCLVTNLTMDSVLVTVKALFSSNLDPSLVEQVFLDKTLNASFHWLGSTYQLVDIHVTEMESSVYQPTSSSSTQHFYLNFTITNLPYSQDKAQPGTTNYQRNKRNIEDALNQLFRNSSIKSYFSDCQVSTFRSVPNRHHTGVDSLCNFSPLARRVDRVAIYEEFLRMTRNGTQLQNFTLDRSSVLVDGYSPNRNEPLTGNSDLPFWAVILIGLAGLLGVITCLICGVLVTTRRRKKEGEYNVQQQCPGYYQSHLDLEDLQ

[4] = target: T4, huMUC16, AA13789-14451; assay: binding ELISA on huMUC16 AA13789-14451
T4 construct: also called MUC16 Antigen (human MUC16 AA13789-14451)
T4 chain: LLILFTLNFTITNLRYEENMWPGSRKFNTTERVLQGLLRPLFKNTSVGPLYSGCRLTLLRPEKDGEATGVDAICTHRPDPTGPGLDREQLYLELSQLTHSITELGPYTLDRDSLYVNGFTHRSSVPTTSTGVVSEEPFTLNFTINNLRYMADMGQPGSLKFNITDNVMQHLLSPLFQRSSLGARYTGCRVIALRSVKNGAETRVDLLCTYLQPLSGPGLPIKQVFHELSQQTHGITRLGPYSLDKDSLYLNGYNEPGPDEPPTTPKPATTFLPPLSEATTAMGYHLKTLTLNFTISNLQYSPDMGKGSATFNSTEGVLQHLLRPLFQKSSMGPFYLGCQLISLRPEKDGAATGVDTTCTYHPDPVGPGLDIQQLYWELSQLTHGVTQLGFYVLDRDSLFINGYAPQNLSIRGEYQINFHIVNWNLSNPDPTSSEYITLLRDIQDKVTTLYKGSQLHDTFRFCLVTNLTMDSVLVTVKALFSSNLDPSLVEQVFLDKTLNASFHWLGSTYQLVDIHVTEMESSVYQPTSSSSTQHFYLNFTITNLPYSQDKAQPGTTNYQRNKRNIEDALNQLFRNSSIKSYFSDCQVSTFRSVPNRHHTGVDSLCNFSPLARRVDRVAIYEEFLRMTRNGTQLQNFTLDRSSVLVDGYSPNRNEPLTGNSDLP

[5] = target: T1, human MUC16 on cells; assay: flow cytometry (MFI GeoMean) on OVCAR3 cells, nM is the unit of the x axis Log10[Ab] (nM)
[6] = target: T5, human MUC16 (human); assay: binding kinetics, sensorgrams in RU in FIG. 14B, model printed: Kinetics 1:1; form of the MUC16 antigen not given
T5 construct: also called MUC16 antigen of the kinetic assay

[7] = target: T1, human MUC16 on cells; assay: flow cytometry (GMFI) on OVCAR3 cells, nM is the unit of the x axis Log10[Ab] (nM)
[8] = target: T6, ROR1 on cells (UniProt Q01973 30-937); assay: flow cytometry (gMFI) on A549 cells
T6 construct: whole, on cells; also called ROR1 endogenous expressed tumor cell A549; ROR1-positive tumor cell lines

[9] = target: T7, 4-1BB on cells (human, UniProt Q07011 24-255); assay: flow cytometry (gMFI) on HEK293-h4-1BB cells
T7 construct: Species is stated as human for section 2.2 as a whole, not for each cell line; also called HEK293 cells expressing 4-1BB; 4-1BB overexpressed HEK293 cell
T7 sequence (Q07011 24-255): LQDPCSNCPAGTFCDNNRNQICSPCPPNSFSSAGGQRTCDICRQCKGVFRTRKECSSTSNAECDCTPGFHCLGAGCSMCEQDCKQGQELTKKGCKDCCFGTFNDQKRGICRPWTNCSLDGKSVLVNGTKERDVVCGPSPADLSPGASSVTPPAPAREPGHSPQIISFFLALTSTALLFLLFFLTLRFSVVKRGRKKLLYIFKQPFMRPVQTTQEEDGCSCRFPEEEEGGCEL

[10] = target: T1, human MUC16 on cells; assay: flow cytometry (GMFI) on OVCAR3 cells, nM is the unit of the x axis Log10[Ab] (nM); curve without upper plateau

B1: C25 (antibody, V domains shown)
VH: EVQLLESGAEVKKPGSSVKVSCKASGGTFSSYAISWVRQAPGQGLEWMGGIIPIFGTANYAQKFQGRVTITADESTSTAYMELSSLRSEDTAVYYCARDSRKYYYDSSGPALWGFDAFDIWGQGTMVTVSS
VL: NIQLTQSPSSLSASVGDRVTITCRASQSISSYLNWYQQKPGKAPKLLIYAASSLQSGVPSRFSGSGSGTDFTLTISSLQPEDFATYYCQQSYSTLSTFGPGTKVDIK
notes: Anti-MUC16 mAb from a human naive Fab phage library; also called MUC16-C25
**Q.** B1 was tested. Which EC50 [1] did it give?
**A.** The EC50 was 0.0978 nM.

**Q.** What about the EC50 [2] of the same binder?
**A.** Its EC50 is 0.156 nM.

**Q.** Does B1 bind [3]?
**A.** Result: no binding (tested: 100 nM)

**Q.** Does B1 bind [4]?
**A.** Result: binds

**Q.** And the EC50 [5]?
**A.** The EC50 was 0.242 nM.

**Q.** And the Kd [6]?
**A.** The Kd was 26.9 nM.

**Q.** What about the koff [6] of the same binder?
**A.** The koff was 0.00697 s⁻¹.

**Q.** What about the kon [6] of the same binder?
**A.** Its kon is 260000 M⁻¹ s⁻¹.

**Q.** And the EC50 [7]?
**A.** The EC50 was 0.179 nM.

B2: 4B-10C9 (second entry of Table 6A, with 9C9 VH and 9C9 VL) (bispecific antibody, human IgG1, kappa)
heavy: not shown
light: DIVLTQSPAITAASLGQKVTITCSASSSVTYMHWYQQKSGTSPKLWIYDISKLASGVPARFSGSGPGTSYSLTISTMEAEDAAIYYCQQWNYPLMTFGGGTKLEIKRTVAAPSVFIFPPSDEQLKSGTASVVCLLNNFYPREAKVQWKVDNALQSGNSQESVTEQDSKDSTYSLSSTLTLSKADYEKHKVYACEVTHQGLSSPVTKSFNRGEC
notes: Label 4B-10C9 is printed twice; this entry holds the 9C9 variable domains and is probably meant as 4B-9C9; also called 10C9 IgG x 4-1BB VHH (label as printed)
**Q.** B2 was tested. Which “EC50 (read off the curve)” value [8] did it give?
**A.** Its value is roughly 0.2 nM.

**Q.** What about the “EC50 (read off the curve)” value [9] of the same binder?
**A.** Its value is roughly 0.3 nM.

B3: 4B-3C5 (bispecific antibody, human IgG1, kappa)
heavy: not shown
light: DIKMTQSPSSMYASLGERVSITCRASQDIYSYLSWFQQKPGKSPKTLIYRANRLVDGVPSRFSGSGSGQDYSLTISSLEYEDMGIYYCLQYDEFPYTFGGGTKLEIKRTVAAPSVFIFPPSDEQLKSGTASVVCLLNNFYPREAKVQWKVDNALQSGNSQESVTEQDSKDSTYSLSSTLTLSKADYEKHKVYACEVTHQGLSSPVTKSFNRGEC
notes: Chimeric ROR1 x 4-1BB BsAb; also called 3C5 IgG x 4-1BB VHH
**Q.** What does the source list for B3?
**A.** EC50 (read off the curve) [8]: ~0.08 nM; EC50 (read off the curve) [9]: ~0.1 nM

B4: D46 (antibody, V domains shown)
VH: QVQLVQSGAEVKKPGSSVKVSCKASGGTFSSYAISWVRQAPGQGLEWMGRIIPIFGIANYAQKFQGRVTITADKSTSTAYMELSSLRSEDTAVYYCAITGDYDILTGSYYYGMDVWGQGTTVTVSS
VL: NIQLTQSPSSLSASVGDRVTITCRASQGIRNDLGWYQQKPGKAPKLLIYAASSLQSGVPSRFSGSGSGTDFTLTISSLQPEDFATYYCLQDYNYPFTFGPGTKVDIK
notes: Anti-MUC16 mAb
**Q.** Does B4 bind [3]?
**A.** Result: no binding (tested: 100 nM)

**Q.** Does B4 bind [4]?
**A.** Result: binds

**Q.** And the EC50 [7]?
**A.** Its EC50 is 0.347 nM.

B5: C73 (antibody, V domains shown)
VH: QVQLMQSGAEVKKPGSSVKVSCKASGGTFSSYAISWVRQAPGQGLEWMGGIIPIFGTANYAQKFQGRVTITADESTSTAYMELSSLRSEDTAVYYCAREPPLSNYGDYATEQYYYGMDVWGQGTLVTVSS
VL: not shown
notes: Anti-MUC16 mAb
**Q.** For B5, which EC50 [10] is on record?
**A.** Its EC50 is 50.1 nM.

**Q.** Does B5 bind [3]?
**A.** Result: no binding (tested: 100 nM)

**Q.** Does B5 bind [4]?
**A.** Result: binds

B6: D20 (antibody, V domains shown)
VH: QVQLVQSGAEVKKPGSSVKVSCKASGGTFSSYAISWVRQAPGQGLEWMGGIIPIFGTANYAQKFQGRVTITADESTSTAYMELSSLRSEDTAVYYCASTPELLWFGELGGAYYFDYWGQGTLVTVSS
VL: NIQLTQSPSTLSASVGDRVTITCRASESISSWLAWYQQKPGEAPKLLIYKASTLENGVPSRFSGSGSETEFTLTISSLQPDDFATYYCQQYRSHWSSTFGPGTKVDIK
notes: Anti-MUC16 mAb
**Q.** With B6 as the binder, how does the EC50 [10] read?
**A.** Its EC50 is 14.1 nM.

**Q.** Does B6 bind [3]?
**A.** Result: no binding (tested: 100 nM)

**Q.** Does B6 bind [4]?
**A.** Result: binds

B7: 4-1BB VHH (VHH)
VHH: QVQLQESGGGLVQPGGSLRLSCAASGYTYSSNCMGWFRQAPGKGLEGVAVICTGGGSPSYADSVKGRFTISRDNAKNTLYLQMNSLRAEDTAVYYCAADLLRAGTPLSSYEFNYWGQGTLVTVSS
**Q.** How did the “EC50 (read off the curve)” value [9] turn out when B7 was run?
**A.** Its value is roughly 0.2 nM.

B8: D1 (antibody, V domains shown)
VH: QVQLVQSGAEVKKPGSSVKVSCKASGGTFSSYAISWVRQAPGQGLEWMGGIIPIFGTANYAQKFQGRVTITADESTSTAYMELSSLRSEDTAVYYCARAPMVRGVPPTPYYYYYGMDVWGQGTTVTVSS
VL: EIVLTQSPATLSLSPGERATLSCRASQSVSNYLAWYQQKPGQAPRLLIYDASNRATGIPARFSGSGSGTDFTLTISSLEPEDFAVYYCQQRSNWPSFGQGTKVEIK
notes: Anti-MUC16 mAb
**Q.** What does the source list for B8?
**A.** EC50 [10]: 27.6 nM; binding result [3]: no binding (tested: 100 nM); binding result [4]: binds

B9: 4B-8F2 (bispecific antibody, human IgG1, kappa)
heavy: not shown
light: DVVMTQTPLTLSVTIGQPASISCKSSQSLLHSNGKTYLNWLLQRPGQSPNLLIYLVSKLESGVPDRFSGSGSGTDFTLKISRVEAEDLGVYYCLQATYFPYTFGSGTKLEIKRTVAAPSVFIFPPSDEQLKSGTASVVCLLNNFYPREAKVQWKVDNALQSGNSQESVTEQDSKDSTYSLSSTLTLSKADYEKHKVYACEVTHQGLSSPVTKSFNRGEC
notes: Chimeric ROR1 x 4-1BB BsAb; also called 8F2 IgG x 4-1BB VHH
**Q.** What does the source list for B9?
**A.** EC50 (read off the curve) [8]: ~0.03 nM; EC50 (read off the curve) [9]: ~0.2 nM

B10: 4B-10C9 (bispecific antibody, human IgG1, kappa)
heavy: not shown
light: B9 light with T14A, S32I, N50K, Y98H
notes: also called 10C9 IgG x 4-1BB VHH
**Q.** B10 was tested. Which “EC50 (read off the curve)” value [8] did it give?
**A.** The value was roughly 0.3 nM.

**Q.** And the “EC50 (read off the curve)” value [9]?
**A.** Its value is roughly 0.3 nM.

B11: D30 (antibody, V domains shown)
VH: QVQLVQSGAEVKKPGSSVKVSCKASGGTFSSYAISWVRQAPGQGLEWMGGIIPIFGTANYAQKFQGRVTITADESTSTAYMELSSLRSEDTAVYYCARANFNIYYYYYGMDVWGQGTLVTVSS
VL: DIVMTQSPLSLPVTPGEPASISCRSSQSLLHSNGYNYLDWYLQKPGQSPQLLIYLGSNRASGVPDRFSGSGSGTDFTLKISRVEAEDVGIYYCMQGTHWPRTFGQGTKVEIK
notes: Anti-MUC16 mAb
**Q.** For B11, which EC50 [1] is on record?
**A.** Its EC50 is 0.125 nM.

**Q.** What about the EC50 [2] of the same binder?
**A.** Its EC50 is 0.277 nM.

**Q.** Does B11 bind [3]?
**A.** Result: no binding (tested: 100 nM)

**Q.** Does B11 bind [4]?
**A.** Result: binds

**Q.** And the EC50 [5]?
**A.** Its EC50 is 0.38 nM.

**Q.** And the EC50 [7]?
**A.** The EC50 was 0.389 nM.

Reference: patent US20260078196A1 (TJ BIOPHARMA SHANGHAI, published 2026)
